For data set [1], the system named is E. coli strain MCM531 (BL21 PL.2-mKKDyI). The data set can be described thus: Growth inhibition of MCM531 by mevalonic acid. The format is cell-based, Escherichia coli. As to conditions: TM3 medium with 1% glucose and yeast extract; 0, 1, 5, 10, 15 or 20 mM MVA; OD600, quadruplicate. Here is the method:
An overnight culture of MCM531 (see strain description) was back-diluted to an OD600 of 0.05 (this corresponds to an OD600 of approx 0.005 in a 96-well plate reader) (SpectraMax M2, Molecular Devices). The diluted culture was then aliquotted into separate wells in a 96-well deep-well plate into standard TM3 medium (13.6 g K2PO4, 13.6 g KH2PO4, 2.0 g MgSO4*7H2O) supplemented with 1% glucose and 0.8 g/L Biospringer yeast extract (1% Yeast extract final)) with 0, 1, 5, 10, 15 or 20 mM MVA added. […] Each MVA concentration was assayed in quadruplicate, error bars were negligible.

Data set [2] addresses P. alba isoprene synthase (IspS), full length, C-terminally TEV and His-tagged (MD09-165), FL(+)TEV, SEQ ID NO:134 (Populus alba, UniProt Q50L36). As to conditions: DMAPP 0.625 to 40 mM, 50 mM MgCl2, pH 8, 30° C., 15 min; ± S.D., triplicate. Here is the method: (§1) The relative specific activity was determined and the kinetics of “N-terminally truncated” P. alba isoprene synthases were examined compared to “Full length” P. alba isoprene synthases. Four strains expressing four different constructs were used in this analysis: BL21(λDE3) pLysS with P. alba pET24a; MD09-173; MD09-165; and MD09-167 (Strains described above in detail). These strains express “full length” P. alba IspS, “truncated” P. alba IspS (the MEA truncation), “full length” C-terminally TEV and His-tagged P. alba IspS, and “truncated” C-terminally TEV and His-tagged P. alba IspS, respectively. In the experiments described below, “truncated” refers specifically to the MEA variant of P. alba IspS.
(§2) All strains were inoculated into LB containing 30 mg/L chloramphenicol(Cm) and 50 mg/L kanamycin and grown overnight in 2 mL culture tubes at 37° C. The overnight cultures were diluted 1:100 in 25 mL of LB broth containing 30 mg/L chloramphenicol(Cm) and 50 mg/L kanamycin the following morning and grown at 37° C. until OD˜0.5. Each strain was grown in triplicate. The cultures were then induced with 400 uM IPTG and incubated at 30° C. for 4 hours.

Data set [3] concerns the target P. alba isoprene synthase (IspS), truncated MEA variant, C-terminally TEV and His-tagged (MD09-167), MEA(+)TEV, SEQ ID NO:132 (Populus alba, UniProt Q50L36). As to conditions: DMAPP 0.625 to 40 mM, 50 mM MgCl2, pH 8, 30° C., 15 min; ± S.D., triplicate (2.5 mM DMAPP in duplicate). As for the experimental part: as §1, §2
Substrate in data set [4]: CC(C)=CCOP(=O)(O)OP(=O)(O)O
Nature of the data set: purified protein, by the assay type. As to conditions: other: DMAPP 0.625 to 40 mM, 50 mM MgCl2, pH 8, 30° C., 15 min, ± S.D., triplicate.

Chain of P. alba isoprene synthase (IspS), truncated MEA variant, C-terminally TEV and His-tagged (MD09-167), MEA(+)TEV, SEQ ID NO:132 (Q50L36 with tags, fused parts or gaps): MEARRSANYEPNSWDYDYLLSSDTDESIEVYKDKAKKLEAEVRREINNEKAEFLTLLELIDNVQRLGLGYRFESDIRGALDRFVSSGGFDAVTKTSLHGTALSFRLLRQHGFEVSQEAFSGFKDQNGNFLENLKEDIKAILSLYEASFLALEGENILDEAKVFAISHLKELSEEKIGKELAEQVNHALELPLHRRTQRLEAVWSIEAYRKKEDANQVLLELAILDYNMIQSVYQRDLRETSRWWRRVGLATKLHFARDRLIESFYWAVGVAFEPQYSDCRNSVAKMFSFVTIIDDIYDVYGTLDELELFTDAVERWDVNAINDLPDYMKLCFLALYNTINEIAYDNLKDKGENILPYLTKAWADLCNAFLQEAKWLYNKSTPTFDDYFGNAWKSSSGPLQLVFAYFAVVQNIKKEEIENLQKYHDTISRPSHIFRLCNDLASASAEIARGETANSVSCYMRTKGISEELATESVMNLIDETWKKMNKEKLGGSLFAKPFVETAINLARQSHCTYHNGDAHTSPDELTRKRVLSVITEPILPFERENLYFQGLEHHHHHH
Chain of P. alba isoprene synthase (IspS), full length, C-terminally TEV and His-tagged (MD09-165), FL(+)TEV, SEQ ID NO:134 (Q50L36 with tags, fused parts or gaps): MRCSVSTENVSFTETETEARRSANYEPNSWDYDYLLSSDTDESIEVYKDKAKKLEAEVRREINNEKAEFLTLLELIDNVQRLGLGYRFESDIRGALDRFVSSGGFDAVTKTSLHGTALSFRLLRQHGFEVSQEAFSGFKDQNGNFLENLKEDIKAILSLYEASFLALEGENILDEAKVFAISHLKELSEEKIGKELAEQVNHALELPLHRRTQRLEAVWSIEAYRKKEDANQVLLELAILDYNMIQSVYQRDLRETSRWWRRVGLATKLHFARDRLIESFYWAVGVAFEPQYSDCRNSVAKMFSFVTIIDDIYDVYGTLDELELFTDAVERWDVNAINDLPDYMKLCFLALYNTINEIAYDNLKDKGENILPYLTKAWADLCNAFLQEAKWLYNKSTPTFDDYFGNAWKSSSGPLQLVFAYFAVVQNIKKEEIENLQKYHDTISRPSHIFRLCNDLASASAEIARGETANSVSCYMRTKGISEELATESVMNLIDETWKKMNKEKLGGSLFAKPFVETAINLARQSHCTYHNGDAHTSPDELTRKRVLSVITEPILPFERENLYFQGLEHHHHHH

As for `C[C@@](O)(CCO)CC(=O)O` [MVA, Mevalonic Acid], the “concentration at which growth was severely inhibited” value in data set [1] is reported as at least 5 mM.
As for `CC(C)=CCOP(=O)(O)OP(=O)(O)O` [DMAPP, 3,3-dimethylallyl pyrophosphate], the KM was found to be 2400 ± 500 µM in data set [2] and 2000 ± 1000 µM in data set [3].

B1: P. alba isoprene synthase (IspS), full length, untagged, SEQ ID NO:120 (Populus alba) (protein)
chain: MRCSVSTENVSFTETETEARRSANYEPNSWDYDYLLSSDTDESIEVYKDKAKKLEAEVRREINNEKAEFLTLLELIDNVQRLGLGYRFESDIRGALDRFVSSGGFDAVTKTSLHGTALSFRLLRQHGFEVSQEAFSGFKDQNGNFLENLKEDIKAILSLYEASFLALEGENILDEAKVFAISHLKELSEEKIGKELAEQVNHALELPLHRRTQRLEAVWSIEAYRKKEDANQVLLELAILDYNMIQSVYQRDLRETSRWWRRVGLATKLHFARDRLIESFYWAVGVAFEPQYSDCRNSVAKMFSFVTIIDDIYDVYGTLDELELFTDAVERWDVNAINDLPDYMKLCFLALYNTINEIAYDNLKDKGENILPYLTKAWADLCNAFLQEAKWLYNKSTPTFDDYFGNAWKSSSGPLQLVFAYFAVVQNIKKEEIENLQKYHDTISRPSHIFRLCNDLASASAEIARGETANSVSCYMRTKGISEELATESVMNLIDETWKKMNKEKLGGSLFAKPFVETAINLARQSHCTYHNGDAHTSPDELTRKRVLSVITEPILPFER
On to B1, for which, in data set [4], the Km turned out to be 2400 ± 300 µM and the kcat worked out at 0.72 s⁻¹.

B2: P. alba isoprene synthase (IspS), N-terminally truncated MEA variant, untagged (MD09-173, pDu39), SEQ ID NO:122 (Populus alba) (protein)
chain: MEARRSANYEPNSWDYDYLLSSDTDESIEVYKDKAKKLEAEVRREINNEKAEFLTLLELIDNVQRLGLGYRFESDIRGALDRFVSSGGFDAVTKTSLHGTALSFRLLRQHGFEVSQEAFSGFKDQNGNFLENLKEDIKAILSLYEASFLALEGENILDEAKVFAISHLKELSEEKIGKELAEQVNHALELPLHRRTQRLEAVWSIEAYRKKEDANQVLLELAILDYNMIQSVYQRDLRETSRWWRRVGLATKLHFARDRLIESFYWAVGVAFEPQYSDCRNSVAKMFSFVTIIDDIYDVYGTLDELELFTDAVERWDVNAINDLPDYMKLCFLALYNTINEIAYDNLKDKGENILPYLTKAWADLCNAFLQEAKWLYNKSTPTFDDYFGNAWKSSSGPLQLVFAYFAVVQNIKKEEIENLQKYHDTISRPSHIFRLCNDLASASAEIARGETANSVSCYMRTKGISEELATESVMNLIDETWKKMNKEKLGGSLFAKPFVETAINLARQSHCTYHNGDAHTSPDELTRKRVLSVITEPILPFER
Regarding B2, in data set [4], the Km was 1800 ± 200 µM and the kcat was determined as 1.5 s⁻¹.

(Values after patent publication US8916370B2, “Isoprene synthase variants for improved microbial production of isoprene” (Danisco US Inc., priority 2008, dated 2014).)
